± gives the uncertainty stated by the source.
Test: protein stability index of a GFP-peptide fusion (yeast GPS) (PSI 1-4); higher = more stable; sorted into four equal gates, so the index is relative within each strain
How it was run: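 Mid-log yeast cultures in leucine-free medium, carrying a pooled plasmid library, were sorted into four equal gates by their GFP/Cherry fluorescence ratio. Each plasmid expressed Cherry along with GFP fused upstream of a tiled 17-residue yeast protein peptide. Plasmids recovered from each gate were PCR-amplified and Illumina-sequenced, with reads assigned to strains by barcodes. The protein stability index was obtained by summing each gate's read frequency weighted by its gate number.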

Sequence	protein stability index (doa10∆)	protein stability index (pdr5∆)	protein stability index (san1∆)	protein stability index (ubr1∆)
LVRDSKPSKPFNVDDVL [MED8]	2.48 ± 0.055	2.57 ± 0.044	2.46 ± 0.051	2.5 ± 0.047
LVRELYQWRDLIARRDD [RRP6]	2.96 ± 0.056	2.77 ± 0.062	2.65 ± 0.055	2.25 ± 0.043
LVSEARTLWPEFIPPDP [SSN8]	2.61 ± 0.041	2.8 ± 0.043	2.73 ± 0.038	3.03 ± 0.033
LVSTLTTGISSTGAADG [SMC2]	2.34 ± 0.097	2.65 ± 0.088	2.93 ± 0.092	2.69 ± 0.059
LVVLTDVVERLHKNFES [RGR1]	2.49 ± 0.093	2.74 ± 0.073	2.61 ± 0.12	2.96 ± 0.053
LYDLRASYAKIEIKISD [SNU114]	2.34 ± 0.11	2.72 ± 0.084	2.22 ± 0.12	2.13 ± 0.17
LYDNFVSKFYDKINQLS [RPN9]	2.78 ± 0.098	2.69 ± 0.077	1.58 ± 0.15	2.43 ± 0.077
LYGTAIGARSQGAKTYL [PRE5]	2.88 ± 0.13	3.21 ± 0.079	3.04 ± 0.078	3.13 ± 0.079
LYLKVIPMDFIRNVLVT [SSN2]	1.36 ± 0.094	1.11 ± 0.16	1.4 ± 0.23	1.29 ± 0.16
LYNDNNKNNNNRHNLLN [SWI1]	3.08 ± 0.1	1.96 ± 0.062	1.95 ± 0.065	2.4 ± 0.047
LYPSFKPIYKDTRFGGR [SSN2]	3.17 ± 0.15	3.16 ± 0.087	3.1 ± 0.047	3.41 ± 0.14
LYSYLIKENFFERIMIL [YJL039C/NUP192]	1.48 ± 0.063	1.42 ± 0.073	1.49 ± 0.2	1.26 ± 0.11
MAAQKSFRIKQKMAKAK [RPL39]	2.75 ± 0.072	2.97 ± 0.11	2.25 ± 0.083	2.74 ± 0.08
MAFEASAAAAGNRNSSS [BRR2]	3.12 ± 0.11	3.1 ± 0.11	2.35 ± 0.12	3.14 ± 0.11
MAGLSFDNYQRNNFLAE [PUP1]	3.61 ± 0.17	3.58 ± 0.1	3.29 ± 0.084	3.39 ± 0.092
MAHFKEYQVIGRRLPTE [RPL20A]	2.21 ± 0.071	2.07 ± 0.061	1.4 ± 0.1	2.4 ± 0.047
MAKFLKAGKVAVVVRGR [RPL27A]	1.53 ± 0.093	1.67 ± 0.057	1.57 ± 0.14	1.54 ± 0.092
MAKRVADAQIQRETYDS [YLR335W/NUP2]	2.21 ± 0.22	2.7 ± 0.14	2.08 ± 0.12	2.21 ± 0.1
MANDLVQARDNSQVFGV [RPS14B]	2.39 ± 0.076	2.36 ± 0.061	2.81 ± 0.049	2.97 ± 0.063
MANLSQIYTQRAYMRPL [SCL1]	1.66 ± 0.06	1.46 ± 0.074	1.47 ± 0.12	1.54 ± 0.043
MAREHAPSIIFMDEIDS [RPT6]	2.14 ± 0.073	2.11 ± 0.077	2.54 ± 0.099	2.42 ± 0.059
MARYGATSTNPAKSASA [RPL17A]	2.59 ± 0.056	2.91 ± 0.064	2.31 ± 0.09	2.9 ± 0.048

Sequence	protein stability index (doa10∆)	protein stability index (pdr5∆)	protein stability index (san1∆)	protein stability index (ubr1∆)
MASTAVMMDVDSSGVND [RPN3]	3.17 ± 0.19	3.51 ± 0.2		3.26 ± 0.091
MAYTSHLSSKTGLHFGR [QCR10]	3.08 ± 0.16	2.78 ± 0.087	2.69 ± 0.089	2.76 ± 0.066
MDDEEWRSKRIEQLFPV [RPC53]	3.24 ± 0.085	2.31 ± 0.055	2.89 ± 0.049	2.37 ± 0.041
MDLFMSTLGDCLGIKDE [GAL11]	3.54 ± 0.25		3.38 ± 0.16	3.22 ± 0.2
MDNKTPVTLAKVIKVLG [RPS28A]	1.16 ± 0.12	1.77 ± 0.22	1.16 ± 0.27	2.55 ± 0.27
MDRTQTFIKDCLFTKCL [POP4]	1.75 ± 0.05	1.75 ± 0.056	1.7 ± 0.1	1.94 ± 0.044
MDWLDNWGRKEHDLLRQ [ITC1]	3.22 ± 0.19	3.33 ± 0.26	3.48 ± 0.13	
MERLQRLMMNSKVGSAD [RPN11]	3.28 ± 0.15	2.98 ± 0.17	3.42 ± 0.097	3.22 ± 0.12
MEYLKSSKSLDLNTRIS [RPN5]	2.83 ± 0.057	1.69 ± 0.051	2.34 ± 0.063	2.61 ± 0.055
MFHGAKGPLLIERIGHL [PCI8]	2.5 ± 0.22			
MFILSKIADLVRIPPDQ [RPC25]		2.69 ± 0.22		
MGGIREKKAEYFAKLRE [RPP0]	3.48 ± 0.081	3.37 ± 0.082	3.13 ± 0.061	3.55 ± 0.095
MGGPKQKGITSYAVSPY [QCR8]	2.46 ± 0.17	2.45 ± 0.2	2.25 ± 0.12	1.63 ± 0.21
MGGVSALRGMFKDRFKD [FAS2]	3.56 ± 0.068	3.55 ± 0.067	3.41 ± 0.059	3.54 ± 0.069
MGIVQDTLCGIRKLTLR [RPO21]	2.89 ± 0.068	1.74 ± 0.053	1.87 ± 0.068	1.64 ± 0.053
MGKKTFREWQYFKLSIT [POP8]	1.5 ± 0.046	1.76 ± 0.045	1.47 ± 0.099	1.71 ± 0.042
MGKRVDFSARTVISGDP [RPO21]	2.98 ± 0.087	3.27 ± 0.12	3.08 ± 0.14	3.1 ± 0.19
MGQGLCNNINKGLKEND [BRR2]	3.13 ± 0.095	3.57 ± 0.15	3.2 ± 0.071	3.39 ± 0.1
MHDSNLQNNSDSESDSD [SKP1]	2.94 ± 0.11	3.18 ± 0.078	3.06 ± 0.056	3.02 ± 0.068
MHKQLAYILAAQKTSFE [RPN1]	2.37 ± 0.056	2.46 ± 0.064	2.29 ± 0.067	2.43 ± 0.063
MHRPVHFLQFSELAGDE [PRP8]	3.23 ± 0.081	3.15 ± 0.084	2.88 ± 0.059	3.05 ± 0.06

— the supplement of paper PMC9732359
